Biological target: T1, BRD4:Histone H3 interaction (Homo sapiens, UniProt O60885)
T1 construct: HaloTag[3-19]; expressed in transfected cells; host or cells: HeLa cells
Experiment: Single live cell time-lapse imaging after JQ1 addition (SmHaloTag dissociation)
Type: cell-based
Conditions: 20 micromolar JQ1, up to about 5 hours, ligand-bound
Protocol: FIG. 139. Quantitation of single live cell time-lapse imaging of inhibition of the BRD4:Histone H3 interaction using split HaloTag fluorescence. […] The intensity of a single cell in both the green and the far-red channel plus its occupied area was tracked over this period.
Measurement of the fluorescence intensity of Split HaloTag after the dissociation of the Small HaloTag peptide, HaloTag[3-19], was tested. After the separation of the SmHaloTag, the Large HaloTag, HaloTag[22-297](M2F), is still covalently bound to the ligand but does the Small HaloTag dissociation affect the ligand fluorogenicity/activity? Time-lapse live cell imaging was performed to address this question. To ensure the tracked cell was viable during the experiment, the area occupied by that specific cell was measured at all time points.

B1: HaloTag[22-297](M2F): large HaloTag fragment, positions 22-297 with M to F substitution at second position (protein)
chain: MFHYVDVGPRDGTPVLFLHGNPTSSYVWRNIIPHVAPTHRCIAPDLIGMGKSDKPDLGYFFDDHVRFMDAFIEALGLEEVVLVIHDWGSALGFHWAKRNPERVKGIAFMEFIRPIPTWDEWPEFARETFQAFRTTDVGRKLIIDQNVFIEGTLPMGVVRPLTEVEMDHYREPFLNPVDREPLWRFPNELPIAGEPANIVALVEEYMDWLHQSPVPKLLFWGTPGVLIPPAEAARLAKSLPNCKAVDIGPGLNLLQEDNPDLIGSEIARWLSTLEISG
change in cell intensity upon SmHaloTag dissociation: reduces almost by half

— US20240174992A1, “SPLIT MODIFIED DEHALOGENASE VARIANTS” (Promega Corporation, priority 2022, published 2024)
